For 27 molecules, Kd, EC50 and IC50 results are on record in patent US20260356955 (published 2026).

T1: cynomolgus KLRB1 on CHO-K1 (cynomolgus)
T1 chain: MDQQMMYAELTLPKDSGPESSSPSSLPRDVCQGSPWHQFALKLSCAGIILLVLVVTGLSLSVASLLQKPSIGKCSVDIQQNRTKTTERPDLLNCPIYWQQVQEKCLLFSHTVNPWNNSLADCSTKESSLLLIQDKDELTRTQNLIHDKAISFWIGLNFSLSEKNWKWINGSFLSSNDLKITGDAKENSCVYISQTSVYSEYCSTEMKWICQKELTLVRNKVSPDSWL

T2: cynomolgus KLRB1 ECD (cynomolgus)
T2 chain: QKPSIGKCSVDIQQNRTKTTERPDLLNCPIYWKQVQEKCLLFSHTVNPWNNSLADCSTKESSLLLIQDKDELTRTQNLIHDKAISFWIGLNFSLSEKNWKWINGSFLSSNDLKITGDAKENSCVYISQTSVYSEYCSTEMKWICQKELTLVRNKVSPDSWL

B1: Hu22F10G3-1.4 (antibody, V domains shown)
VH: QVQLQESGPGLVKPSQTLSLTCTVSGYSLTSDFAWNWIRQHPGKGLEWIGDIRYSGSTDYNPSLKGRVTISVDTSKNQFSLKLSSVTAADTAVYYCARGGYYGYDEGYPMDYWGQGTLVTVSS
VL: DIVMTQSPDSLAVSLGERATISCRASESVDVYGNSFMHWYQQKPGQPPKLLIYLAFNLKSGVPARFSGSGSGTDFTLTISSLQAEDVATYYCQQNNEDPFTFGQGTKLEIK
B2: Hu22F10G3-4.4 (antibody, V domains shown)
VH: B1 VH with H41F, I49M, V68S, V72R, S80F
VL: B1 VL
B3: Hu22F10G3-2.2 (antibody, V domains shown)
VH: B1 VH with I49M, V72R
VL: B1 VL with S22N, T89V
B4: Hu22F10G3-1.3 (antibody, V domains shown)
VH: B1 VH
VL: B1 VL with A64D, T89V
B5: Hu22F10G3-3.2 (antibody, V domains shown)
VH: B1 VH with I49M, V68S, V72R
VL: B1 VL with S22N, T89V
B6: Hu22F10G3-4.3 (antibody, V domains shown)
VH: B1 VH with H41F, I49M, V68S, V72R, S80F
VL: B1 VL with A64D, T89V
B7: Hu22F10G3-1.2 (antibody, V domains shown)
VH: B1 VH
VL: B1 VL with S22N, T89V
B8: Hu22F10G3-4.2 (antibody, V domains shown)
VH: B1 VH with H41F, I49M, V68S, V72R, S80F
VL: B1 VL with S22N, T89V
B9: Hu22F10G3-2.1 (antibody, V domains shown)
VH: B1 VH with I49M, V72R
VL: B1 VL with S22N, A64D, T89V
B10: Hu22F10G3-4.1 (antibody, V domains shown)
VH: B1 VH with H41F, I49M, V68S, V72R, S80F
VL: B1 VL with S22N, A64D, T89V
B11: Hu22F10G3-3.1 (antibody, V domains shown)
VH: B1 VH with I49M, V68S, V72R
VL: B1 VL with S22N, A64D, T89V
B12: Hu22F10G3-3.3 (antibody, V domains shown)
VH: B1 VH with I49M, V68S, V72R
VL: B1 VL with A64D, T89V
B13: Hu22F10G3-2.4 (antibody, V domains shown)
VH: B1 VH with I49M, V72R
VL: B1 VL
B14: Hu47A5H2-14 (antibody, V domains shown)
VH: QVQLVQSGAEVKKPGASVKVSCKGSGYSFTGYWMHWVRQAPGQGLEWMGMIHPSDSETRLNQKFKDKVTMTVDKSTSTVYMELSSLRSEDTAVYYCASEGLRRGSFAYWGQGTLVTVSS
VL: DIVLTQSPDSLAVSLGERATINCRASESVDNYGMTFMSWYQQKPGQPPKLLIYAASNQGSGVPDRFSGSGSGTDFTLTISSLQAEDVAVYYCQQSKEVPYTFGQGTKLEIK
B15: Hu47A5H2-09 (antibody, V domains shown)
VH: B14 VH with G24A, K67R
VL: B14 VL with L4M
B16: Hu47A5H2-08 (antibody, V domains shown)
VH: B14 VH with G24A, K67R, K74T
VL: EIVLTQSPATLSLSPGERATLSCRASESVDNYGMTFMSWYQQKPGQAPRLLIYAASNQGSGIPARFSGSGSGTDFTLTISSLEPEDFAVYYCQQSKEVPYTFGQGTKLEIK
B17: Hu47A5H2-04 (antibody, V domains shown)
VH: B14 VH with G24A, K67R, V72R, K74T
VL: B16 VL
B18: Hu47A5H2-13 (antibody, V domains shown)
VH: B14 VH
VL: B14 VL with L4M
B19: Hu47A5H2-06 (antibody, V domains shown)
VH: B14 VH with G24A, K67R, K74T
VL: B14 VL
B20: Hu47A5H2-10 (antibody, V domains shown)
VH: B14 VH with G24A, K67R
VL: B14 VL
B21: Hu47A5H2-05 (antibody, V domains shown)
VH: B14 VH with G24A, K67R, K74T
VL: B14 VL with L4M
B22: Hu47A5H2-01 (antibody, V domains shown)
VH: B14 VH with G24A, K67R, V72R, K74T
VL: B14 VL with L4M
B23: Hu47A5H2-02 (antibody, V domains shown)
VH: B14 VH with G24A, K67R, V72R, K74T
VL: B14 VL
B24: Hu47A5H2-03 (antibody, V domains shown)
VH: B14 VH with G24A, K67R, V72R, K74T
VL: B14 VL with Y40F
B25: Hu47A5H2-16 (antibody, V domains shown)
VH: B14 VH
VL: B16 VL
B26: Hu47A5H2-12 (antibody, V domains shown)
VH: B14 VH with G24A, K67R
VL: B16 VL
B27: Hu47A5H2-15 (antibody, V domains shown)
VH: B14 VH
VL: B14 VL with Y40F

Residue numbers refer to the chain shown, from its start.

Chain of human KLRB1 ECD (human) (chain, as listed by the source): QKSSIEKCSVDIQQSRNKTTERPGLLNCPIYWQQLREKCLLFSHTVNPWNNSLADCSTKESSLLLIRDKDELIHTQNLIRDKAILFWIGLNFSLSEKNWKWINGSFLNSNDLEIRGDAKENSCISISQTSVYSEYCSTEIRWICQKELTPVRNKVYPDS
Chain of human KLRB1 on CHO-K1 (human) (chain, as listed by the source): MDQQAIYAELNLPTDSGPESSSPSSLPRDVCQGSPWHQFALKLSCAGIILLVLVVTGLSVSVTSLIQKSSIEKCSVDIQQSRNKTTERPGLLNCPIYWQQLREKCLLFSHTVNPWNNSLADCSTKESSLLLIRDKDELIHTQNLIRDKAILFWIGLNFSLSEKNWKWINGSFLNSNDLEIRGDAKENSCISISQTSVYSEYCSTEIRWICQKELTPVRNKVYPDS

The first assay addresses human KLRB1 ECD (human). Put plainly: SPR. On the technique in general: Surface plasmon resonance follows binding to a sensor surface in real time, without labels.
Regarding B1, the dissociation constant Kd (usually a measure of binding affinity in units of concentration) was 0.153 nM.
On the same count and under the same terms, for B2 the value was 0.121 nM; for B3, 0.135 nM.
Regarding B4, the affinity, expressed as Kd, was 0.177 nM. This Kd and that of the molecule before are within 1.5-fold of each other.
On the same count and under the same terms, for B5 the value was 0.189 nM; for B6, 0.0972 nM; for B7, 0.152 nM.
The molecule B8 yielded a Kd of 0.13 nM.
The same measure, in the same setting: the result for B9 reads 0.104 nM; that for B10, 0.105 nM.
Molecule B11 came in with a Kd of 0.122 nM.
On the same count and under the same terms, the result for B12 reads 0.18 nM.
For the molecule B13, the Kd came out at 0.116 nM.

The target of the next assay is T1, cynomolgus KLRB1 on CHO-K1. Put plainly: FACS. On the technique in general: A flow cytometer gives signals particle by particle.
Turning to B14, the EC50 (commonly the concentration that produces a half-maximal response) is approximately 1.82 nM.
Take B15: the EC50 was approximately 1.86 nM.
As for B16, the EC50 came out at 2.55 nM. This lies in the single-digit nanomolar range.
On to B17, for which the EC50 was found to be 4.71 nM.
B18 registered an EC50 of approximately 1.81 nM.
B19: the EC50 was found to be 6.62 nM.
Turning to B20, the EC50 is approximately 1.65 nM.
The molecule B21 registered an EC50 of 5.22 nM.
On to B22, for which the EC50 worked out at 7.76 nM.
Consider B23, for which it took 7.51 nM to reach a half-maximal effect (EC50).
With B24, a half-maximal effect (EC50) was put at 11.6 nM.
Regarding B25, the concentration giving a half-maximal response (EC50) is approximately 1.8 nM.
Molecule B26 showed an EC50 of approximately 1.69 nM.
On to B27, for which the 50% effective concentration (EC50) is approximately 1.74 nM.

A further assay concerns the target human KLRB1 on CHO-K1 (human). In words: FACS.
In the case of B14, the EC50 came to 2.12 nM.
Molecule B15 had an EC50 of 1.96 nM.
Turning to B16, the response was half-maximal at 1.68 nM (EC50).
As to B17, a half-maximal effect (EC50) was put at 1.67 nM.
The molecule B18 returned a half-maximal effective concentration (EC50) of 1.79 nM.
B19 had an EC50 of 1.67 nM.
Consider B20, for which the EC50 worked out at 0.88 nM.
As to B21, the EC50 stood at 1.49 nM. This EC50 is about 1.7-fold higher than that of the molecule before.
Same read-out and setting: for B22 the value was 2.65 nM; for B23, 2.08 nM; for B24, 1.73 nM.
As to B25, the response was half-maximal at 2.11 nM (EC50).
In turn, B26 returned an EC50 of 5.16 nM.
As to B27, the EC50 stood at 1.98 nM. Compared with the last molecule, the EC50 is about 2.6-fold lower.

The next assay has as its target human KLRB1 ECD (human). Put plainly: ELISA. (In an ELISA, binding on a coated surface is turned into a signal by an enzyme label.)
As to B14, the midpoint of the response, the EC50, lay at 0.0309 nM.
Take B15: the EC50 amounted to 0.0273 nM.
In the case of B16, it took 0.0174 nM to reach a half-maximal effect (EC50).
On the same count and under the same terms, the result for B17 reads 0.0212 nM.
In the case of B18, the EC50 is 0.0266 nM.
The same measure, in the same setting: the result for B19 reads 0.0204 nM; that for B20, 0.0272 nM.
B21: the response was half-maximal at 0.0172 nM (EC50). Against the preceding molecule, the EC50 is about 1.6-fold lower.
For B22, the EC50 was determined as 0.0195 nM. The EC50 values of the last two molecules are within 1.5-fold of each other.
B23: the EC50 came out at 0.0198 nM.
With B24, the concentration for a half-maximal effect (EC50) stood at 0.0205 nM.
B25 showed an EC50 of 0.0287 nM.
B26 registered a concentration giving a half-maximal response (EC50) of 0.0263 nM.
Molecule B27 had an EC50 of 0.0241 nM.

In another assay the target is T2, cynomolgus KLRB1 ECD. Put plainly: ELISA.
B14 came in with an EC50 of 0.0414 nM.
B15 had an EC50 of 0.0283 nM.
In turn, B16 had an EC50 of 0.0306 nM. This EC50 and that of the molecule before are within 1.5-fold of each other.
In turn, B17 yielded a concentration giving a half-maximal response (EC50) of 0.0441 nM.
B18 returned an EC50 of 0.0984 nM. This EC50 lies about 2.2-fold higher than the previous one.
Regarding B19, the EC50 is 0.0562 nM.
The same measure, in the same setting: for B20 the value was 0.0174 nM.
B21 registered an EC50 of 0.0824 nM. Compared with the last molecule, the EC50 is about 4.7-fold higher.
In turn, B22 returned an EC50 of 0.116 nM.
For B23, the EC50 is 0.0372 nM.
Still for that read-out and setting: for B24 the value was 0.0137 nM.
On to B25, for which the EC50 was determined as 0.0429 nM.
B26 gave an EC50 of 0.02 nM.
As for B27, the EC50 was 0.00973 nM.

The next assay addresses human KLRB1 on CHO-K1 (human). Put plainly: competition, CLEC2D, FACS.
Regarding B14, the IC50 – broadly, the concentration at which inhibition is half-maximal – came out at 2.54 nM.
Still for that read-out and setting: the result for B15 reads 2.22 nM; that for B16, 2.42 nM.
B17 showed an IC50 of 2.53 nM.
On to B18, for which the IC50 is 2.31 nM. This IC50 and that of the molecule before are within 1.5-fold of each other.
Molecule B19 returned an IC50 of 2.66 nM.
Molecule B20 displayed an IC50 of 1.96 nM. This IC50 and that of the molecule before are within 1.5-fold of each other.
Same read-out and setting: for B21 the value was 2.16 nM.
Same read-out and setting: the result for B22 reads 1.59 nM; that for B23, 2.05 nM.
B24 showed an IC50 of 2.31 nM.
B25 showed an IC50 of 2.41 nM.
As for B26, the IC50 came out at 2.17 nM.
As for B27, the IC50 was 2.47 nM.
